Test in all cases: SPR, antibody captured, C2 as analyte;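 note: biacore SPR at 37 °C, anti-C2 mAbs captured via goat anti-human IgG on CM5 chips, double-referenced sensorgrams fit to a 1:1 kinetic or steady-state model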
For orientation: In SPR one partner is held on a chip, and binding of the other changes the refractive index at the surface.

One experiment concerns the target T1, human C2 P723A (human, UniProt P06681 21-752).
T1 sequence: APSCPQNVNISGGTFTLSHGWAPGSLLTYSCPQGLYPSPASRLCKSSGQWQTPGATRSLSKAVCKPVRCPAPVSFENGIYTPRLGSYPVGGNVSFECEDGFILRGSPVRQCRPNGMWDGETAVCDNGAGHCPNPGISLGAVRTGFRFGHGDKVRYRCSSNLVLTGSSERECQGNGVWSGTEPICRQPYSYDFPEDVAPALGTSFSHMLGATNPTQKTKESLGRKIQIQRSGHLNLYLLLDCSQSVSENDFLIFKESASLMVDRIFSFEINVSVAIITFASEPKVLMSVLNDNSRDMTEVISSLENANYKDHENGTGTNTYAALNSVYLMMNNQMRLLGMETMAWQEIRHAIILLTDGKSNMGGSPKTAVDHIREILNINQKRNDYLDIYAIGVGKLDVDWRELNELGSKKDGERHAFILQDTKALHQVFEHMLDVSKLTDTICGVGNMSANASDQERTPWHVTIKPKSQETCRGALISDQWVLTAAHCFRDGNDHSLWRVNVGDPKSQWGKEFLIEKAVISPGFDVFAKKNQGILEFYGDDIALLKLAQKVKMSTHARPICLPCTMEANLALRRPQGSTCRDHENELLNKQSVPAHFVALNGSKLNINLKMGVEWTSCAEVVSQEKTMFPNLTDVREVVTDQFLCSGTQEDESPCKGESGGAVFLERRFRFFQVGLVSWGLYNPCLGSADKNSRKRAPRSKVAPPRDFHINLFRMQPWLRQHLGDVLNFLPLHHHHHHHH

For the next experiment, the target named is T2, human C2 R714A (human, UniProt P06681 21-752).
T2 sequence: T1 sequence with R694A, A703P

In another experiment the target is T3, human C2 G432A (human, UniProt P06681 21-752).
T3 sequence: T1 sequence with G412A, A703P

The next experiment has as its target T4, human C2 D431A (human, UniProt P06681 21-752).
T4 sequence: T1 sequence with D411A, A703P

Positions count from the first letter of the chain named.

Our source for the Kd values is US20220332804A1 (CSL INNOVATION, published 2022).

B1: RF16-226 (antibody, human IgG4 S228P, lambda)
heavy: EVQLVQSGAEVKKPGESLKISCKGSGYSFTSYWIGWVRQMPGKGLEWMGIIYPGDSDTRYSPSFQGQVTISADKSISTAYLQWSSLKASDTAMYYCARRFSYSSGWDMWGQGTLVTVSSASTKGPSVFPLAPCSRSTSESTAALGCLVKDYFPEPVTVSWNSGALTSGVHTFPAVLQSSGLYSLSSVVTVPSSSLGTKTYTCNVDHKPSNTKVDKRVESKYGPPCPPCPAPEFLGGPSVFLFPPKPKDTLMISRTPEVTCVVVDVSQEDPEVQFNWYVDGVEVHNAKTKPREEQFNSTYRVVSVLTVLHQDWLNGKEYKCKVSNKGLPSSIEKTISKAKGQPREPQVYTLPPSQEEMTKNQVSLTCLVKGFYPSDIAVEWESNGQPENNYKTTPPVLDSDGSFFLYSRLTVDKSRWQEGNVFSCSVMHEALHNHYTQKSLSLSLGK
light: SYELTQPPSVSVSPGQTARITCSGDALTSKYVAWYQQKSGLAPLLVIYEDTRRPSGIPAKFSGSSSGSVATLTISGAHGDDEADYYCYSTDASGHQRVFGGGTKLTVLSQPKAAPSVTLFPPSSEELQANKATLVCLISDFYPGAVTVAWKADGSPVKAGVETTKPSKQSNNKYAASSYLSLTPEQWKSHRSYSCQVTHEGSTVEKTVAPTECS
notes: pH-dependent anti-C2 antibody from a phage display library; also called WT
B1: the equilibrium dissociation constant (Kd) (commonly the equilibrium constant for the complex coming apart) came to 122 nM with human C2 P723A, 53 nM with human C2 R714A, 6.6 nM with human C2 G432A and 43.4 nM with human C2 D431A.
